The record followed here is publication PMC5218393 (PLoS ONE, 2017).

The target of experiment [1] is recombinant Lu extracellular domain fused with a 6xHis-Tag (Sol-Lu) (Homo sapiens, UniProt P50895).
The target of experiment [2] is H12M35-Fc (Homo sapiens / Mus musculus chimera, UniProt P50895;Q9R069, chimera).
Experiment [3] addresses T1, recombinant Lu extracellular domain fused with an Fc-Tag (Lu-Fc) (Homo sapiens, UniProt P50895).
Experiment [4] addresses T1, recombinant Lu extracellular domain …. The experiment in a line: SPR; BIAcore T200; Lu-Fc immobilized on a CM5 chip; C7 scFv (6.25, 12.5, 25, 50 and 100 nM) injected in 10 mM HEPES pH 7.4, 150 mM NaCl, 3 mM EDTA, 0.005% Tween 20 at 50 μl/min; nonlinear fitting. Conditions: both partners purified. On the technique in general: SPR reads the build-up and loss of mass on a sensor chip optically.

Numbering of substitutions follows the chain as printed.

H12M35-Fc, sequence (Q9R069 other isoform, or with tags, fused parts or gaps chimera): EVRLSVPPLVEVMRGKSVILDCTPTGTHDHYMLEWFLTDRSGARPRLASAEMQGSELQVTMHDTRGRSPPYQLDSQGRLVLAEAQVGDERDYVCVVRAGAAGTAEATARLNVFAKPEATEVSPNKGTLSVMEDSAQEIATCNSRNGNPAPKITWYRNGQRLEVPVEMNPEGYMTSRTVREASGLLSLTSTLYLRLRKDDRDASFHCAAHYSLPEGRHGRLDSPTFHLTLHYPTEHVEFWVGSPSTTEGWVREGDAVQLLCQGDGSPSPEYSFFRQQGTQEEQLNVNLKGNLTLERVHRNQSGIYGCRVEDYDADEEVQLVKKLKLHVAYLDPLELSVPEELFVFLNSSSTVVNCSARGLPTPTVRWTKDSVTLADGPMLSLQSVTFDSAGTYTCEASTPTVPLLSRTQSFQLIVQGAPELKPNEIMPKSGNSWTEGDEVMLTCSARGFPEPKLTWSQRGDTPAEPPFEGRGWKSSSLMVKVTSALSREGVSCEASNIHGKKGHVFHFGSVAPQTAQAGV
recombinant Lu extracellular domain fused with a 6xHis-Tag (Sol-Lu), sequence (P50895 32-547): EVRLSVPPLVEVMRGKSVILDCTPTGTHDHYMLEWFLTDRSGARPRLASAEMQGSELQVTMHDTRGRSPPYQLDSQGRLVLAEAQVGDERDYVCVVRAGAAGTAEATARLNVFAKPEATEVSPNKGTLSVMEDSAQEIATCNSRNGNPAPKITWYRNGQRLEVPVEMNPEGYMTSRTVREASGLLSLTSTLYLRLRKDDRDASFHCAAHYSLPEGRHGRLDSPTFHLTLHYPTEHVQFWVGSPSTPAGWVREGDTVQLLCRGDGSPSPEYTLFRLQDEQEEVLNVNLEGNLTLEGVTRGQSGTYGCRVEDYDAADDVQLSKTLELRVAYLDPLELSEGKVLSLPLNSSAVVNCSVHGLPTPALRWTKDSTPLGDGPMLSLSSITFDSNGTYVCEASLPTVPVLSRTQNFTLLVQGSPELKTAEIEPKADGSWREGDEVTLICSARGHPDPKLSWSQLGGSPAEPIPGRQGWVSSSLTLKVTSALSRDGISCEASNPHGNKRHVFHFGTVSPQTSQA
T1 sequence (P50895 32-547): as above

B1: A1 (antibody, V domains shown)
VH: QVQLVQSGAEVRRPGSSVRISCRTSGGTFNNYALSWVRQAPGQGLEWMGGIIPIVGTAVYAEKFEDSVTVTADESASTAYMEVRSLRSEDTAVYYCATGEKFVSPWFGDLPLHHWGQGTLVTVSS
VL: QSVLTQPPSVSGAPGQRVTISCTGSSSNIGAPYDVHWYQQVPGTAPKLLIYGNTNRPSRVPDRFSGSKSGTSASLAITGLQADDEADYYCQSYDRSLGGSIFGGGTKLTVL
In the case of B1, the binding result in experiment [1], in experiment [2] and in experiment [3] was “binds” each time.

B2: A4 (antibody, V domains shown)
VH: B1 VH
VL: B1 VL with R59G
On to B2, for which the binding result in experiment [1], in experiment [2] and in experiment [3] was “binds” each time.

B3: B8 (antibody, V domains shown)
VH: B1 VH with V2M
VL: B1 VL with V41L, R59G, L108V
B3: the binding result in experiment [1], in experiment [2] and in experiment [3] was “binds” throughout.

B4: C7 scFv (soluble, purified) (scFv, V domains shown)
VH: B1 VH with V2M, R87G
VL: B1 VL with V41I, R59G
notes: VH of clone C7, as in m3; linker, printed as (Gly4Ser)3; VL of clone C7, as in m3; Single band of 29-30 kDa; monomer by size exclusion chromatography; The 6xHis tag is named in the discussion (6xHis tag antibody); also called the scFv form; the purified C7 scFv; source: E. coli HB2151, periplasmic fraction, purified (His Trap excel)
Turning to B4, in experiment [4], the Kd turned out to be 36.6 nM, the koff is 0.0049 s⁻¹ and the kon is 135000 M⁻¹ s⁻¹.

Broadly, the Kd is the equilibrium constant for the complex coming apart. One may read the koff as a measure of how fast the partners let go of each other. In general, kon refers to the rate constant with which the complex forms.
